Assay results from article doi:10.1101/2025.09.16.676457 (bioRxiv, 2025).

Target: T1, sLgBiT-Lc-GPR25 (without coexpression of TPST1 and TPST2) (Latimeria chalumnae (coelacanth), UniProt H3AQL3 1-365)
T1 sequence (looked up): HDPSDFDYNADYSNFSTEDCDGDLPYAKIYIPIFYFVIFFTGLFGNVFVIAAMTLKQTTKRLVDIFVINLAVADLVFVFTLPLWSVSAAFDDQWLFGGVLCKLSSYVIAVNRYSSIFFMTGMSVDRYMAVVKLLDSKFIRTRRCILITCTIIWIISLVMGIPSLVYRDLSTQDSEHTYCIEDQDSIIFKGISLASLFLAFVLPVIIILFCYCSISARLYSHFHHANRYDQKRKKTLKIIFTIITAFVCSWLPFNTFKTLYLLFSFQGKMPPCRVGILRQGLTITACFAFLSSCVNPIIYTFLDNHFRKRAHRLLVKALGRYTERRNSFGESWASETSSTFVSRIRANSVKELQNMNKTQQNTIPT
Experiment: split reporter

IC50: ~400 nM
B1: 6×His-Hs-CXCL17 (ligand, human, UniProt Q6UXB2 22-119, looked up)
chain: SSLNPGVARGHRDRGQASRRWLQEGGQECECKDWFLRAPRRKFMTVSGLPKKQCPCDHFKGNVKKTRHQRHHRKPNKHSRACQQFLKQCQLRSFALPL
